The text below walks through data of patent US20220293215A1 (BROAD INSTITUTE, published 2022).

T1: I-A^b (MHCII) of murine bone marrow-derived dendritic cells from C57BL/6J mice (mouse, UniProt P14434 24-256; P14483 28-265)
T1 construct: whole, on cells; also called H2-IA
T1 sequence (MHC II alpha, looked up): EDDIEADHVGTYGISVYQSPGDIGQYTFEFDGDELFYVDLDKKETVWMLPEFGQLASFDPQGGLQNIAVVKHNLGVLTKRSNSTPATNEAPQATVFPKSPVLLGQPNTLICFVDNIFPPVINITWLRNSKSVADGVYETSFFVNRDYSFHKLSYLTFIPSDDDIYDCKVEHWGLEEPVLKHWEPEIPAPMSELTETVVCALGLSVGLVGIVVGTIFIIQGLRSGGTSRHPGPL
T1 sequence (MHC II beta, looked up): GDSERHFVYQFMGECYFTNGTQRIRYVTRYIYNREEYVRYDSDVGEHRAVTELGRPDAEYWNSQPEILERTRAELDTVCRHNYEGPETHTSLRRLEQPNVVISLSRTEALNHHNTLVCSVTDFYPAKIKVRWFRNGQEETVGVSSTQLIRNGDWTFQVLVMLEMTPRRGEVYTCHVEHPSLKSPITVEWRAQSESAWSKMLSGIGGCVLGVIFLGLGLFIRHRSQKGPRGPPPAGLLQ

The target of this assay is T1, I-A^b (MHCII) of murine bone …. Put plainly: MHCII peptidomics: Y3P IP of peptide-MHCII from BMDCs exposed to live Listeria, iTRAQ LC-MS/MS.
Turning to SSYPGSDETPPVVNPGETNPP [Listeria peptide SSYPGSDETPPVVNPGETNPP (lmo2185)], the logFC was 0.292 log2 fold change, Listeria 6 hr versus 10 min.

On to GINQAYTGSTALSDG [Listeria peptide GINQAYTGSTALSDG (lmo2360)], for which the logFC was 0.261 log2 fold change, Listeria 6 hr versus 10 min.

With DDTTVKFTLPTVAPAFE [Listeria peptide DDTTVKFTLPTVAPAFE (lmo0135)], the logFC was 0.387 log2 fold change, Listeria 6 hr versus 10 min.

Regarding KEKVVATPVSNVSTSS [Listeria peptide KEKVVATPVSNVSTSS (lmo0186)], the logFC is -0.21 log2 fold change, Listeria 6 hr versus 10 min.

Take APGQETQHYYGLPVADSAIDR (also called lmo2558_533-553) [Listeria peptide APGQETQHYYGLPVADSAIDR (lmo2558 (ami))]: the logFC is 0.856 log2 fold change, Listeria 6 hr versus 10 min.

Consider TKEKVVATPVSNVSTSS [Listeria peptide TKEKVVATPVSNVSTSS (lmo0186)], for which the logFC was -0.286 log2 fold change, Listeria 6 hr versus 10 min.

As to DFRYVFDTAKATAASSYPGSDETPP [Listeria peptide DFRYVFDTAKATAASSYPGSDETPP (lmo2185)], the logFC is 0.678 log2 fold change, Listeria 6 hr versus 10 min.

Turning to AVDDTTVKFTLPTVAPAFENTIK [Listeria peptide AVDDTTVKFTLPTVAPAFENTIK (lmo0135)], the logFC is 0.464 log2 fold change, Listeria 6 hr versus 10 min.

For TTVKFTLPTVAPAFENT [Listeria peptide TTVKFTLPTVAPAFENT (lmo0135)], the logFC was 0.0598 log2 fold change, Listeria 6 hr versus 10 min.

STVVVEAGDTLWGIAQSKGTT (also called lmo0582a_26-46) [Listeria peptide STVVVEAGDTLWGIAQSKGTT (lmo0582 (lap))]: the logFC was 0.489 log2 fold change, Listeria 6 hr versus 10 min.

For the molecule IAVTAFAAPTIASA (also called lmo0582b_12-25) [Listeria peptide IAVTAFAAPTIASA (lmo0582 (lap))], the logFC is 0.181 log2 fold change, Listeria 6 hr versus 10 min.

For the molecule DGLTWHDGKPLTADDV [Listeria peptide DGLTWHDGKPLTADDV (lmo0135)], the logFC is 1.02 log2 fold change, Listeria 6 hr versus 10 min.

In the case of GTKEKVVATPVSNVSTSSA (also called lmo0186_285-303) [Listeria peptide GTKEKVVATPVSNVSTSSA (lmo0186)], the logFC was 0.489 log2 fold change, Listeria 6 hr versus 10 min.

On to VDDTTVKFTLPTVAPAFENT (also called lmo0135_150-169) [Listeria peptide VDDTTVKFTLPTVAPAFENT (lmo0135)], for which the logFC is 0.844 log2 fold change, Listeria 6 hr versus 10 min.

On to VDDTTVKFTLPTVAPAFE [Listeria peptide VDDTTVKFTLPTVAPAFE (lmo0135)], for which the logFC was 0.455 log2 fold change, Listeria 6 hr versus 10 min.

As to EAKELVDNAPKALKEGIA [Listeria peptide EAKELVDNAPKALKEGIA (lmo0251 (rplL))], the logFC is 0.93 log2 fold change, Listeria 6 hr versus 10 min.

With GGINQAYTGSTALSDGLN (also called lmo2360_289-306) [Listeria peptide GGINQAYTGSTALSDGLN (lmo2360)], the logFC is 0.555 log2 fold change, Listeria 6 hr versus 10 min.

YPGSDETPPVVNPGETN [Listeria peptide YPGSDETPPVVNPGETN (lmo2185)]: the logFC was 1.86 log2 fold change, Listeria 6 hr versus 10 min.

As for DDTTVKFTLPTVAPAFEN [Listeria peptide DDTTVKFTLPTVAPAFEN (lmo0135)], the logFC was 0.26 log2 fold change, Listeria 6 hr versus 10 min.

RYVFDTAKATAASSYPGSDETPPVVNPGETNPP [Listeria peptide RYVFDTAKATAASSYPGSDETPPVVNPGETNPP (lmo2185)]: the logFC was 0.634 log2 fold change, Listeria 6 hr versus 10 min.

DDTTVKFTLPTVAPAFENT [Listeria peptide DDTTVKFTLPTVAPAFENT (lmo0135)]: the logFC was 0.786 log2 fold change, Listeria 6 hr versus 10 min.

As to RYVFDTAKATAASSYPGSDETPP [Listeria peptide RYVFDTAKATAASSYPGSDETPP (lmo2185)], the logFC is 0.271 log2 fold change, Listeria 6 hr versus 10 min.

Take AVDDTTVKFTLPTVAPAFENT [Listeria peptide AVDDTTVKFTLPTVAPAFENT (lmo0135)]: the logFC was 0.871 log2 fold change, Listeria 6 hr versus 10 min.

Turning to VETKADIDALSLLSDKIFVTNQT [Listeria peptide VETKADIDALSLLSDKIFVTNQT (lmo1451 (ispH))], the logFC is 1.06 log2 fold change, Listeria 6 hr versus 10 min.

On to ADFRYVFDTAKATAASSYPGSDETPP [Listeria peptide ADFRYVFDTAKATAASSYPGSDETPP (lmo2185)], for which the logFC is 1.56 log2 fold change, Listeria 6 hr versus 10 min.

Turning to GGINQAYTGSTALSDG [Listeria peptide GGINQAYTGSTALSDG (lmo2360)], the logFC is 0.239 log2 fold change, Listeria 6 hr versus 10 min.

With YVFDTAKATAASSYPGSDETPP [Listeria peptide YVFDTAKATAASSYPGSDETPP (lmo2185)], the logFC was 0.611 log2 fold change, Listeria 6 hr versus 10 min.

For YPGSDETPPVVNPGE [Listeria peptide YPGSDETPPVVNPGE (lmo2185)], the logFC is 0.785 log2 fold change, Listeria 6 hr versus 10 min.

For ADFRYVFDTAKATAASSYPG (also called lmo2185_293-312) [Listeria peptide ADFRYVFDTAKATAASSYPG (lmo2185)], the logFC was 1.57 log2 fold change, Listeria 6 hr versus 10 min.

Turning to GTKEKVVATPVSNVST [Listeria peptide GTKEKVVATPVSNVST (lmo0186)], the logFC was 0.0371 log2 fold change, Listeria 6 hr versus 10 min.
